Data as given in patent publication US20110206704A1, “Methods and compositions for modulating hepatocyte growth factor activator” (Genentech, Inc., priority 2009, published 2011).
Positions count from the first letter of the chain named. Each block holds one molecule with its values, some of them ahead of it. * marks the point of attachment. CH2Cl = ClC*

What was measured:
HGFA = biological target: T1, HGFA (Homo sapiens, UniProt Q04756); assay: Ab40 binding to HGFA in the presence of active site inhibitors (surface plasmon resonance); conditions: active site inhibitor present; result in words
T1 construct: His6 behind an AAA linker) (C); made in house; host or cells: baculovirus - insect cell expression system
T1 sequence (Q04756 373-655): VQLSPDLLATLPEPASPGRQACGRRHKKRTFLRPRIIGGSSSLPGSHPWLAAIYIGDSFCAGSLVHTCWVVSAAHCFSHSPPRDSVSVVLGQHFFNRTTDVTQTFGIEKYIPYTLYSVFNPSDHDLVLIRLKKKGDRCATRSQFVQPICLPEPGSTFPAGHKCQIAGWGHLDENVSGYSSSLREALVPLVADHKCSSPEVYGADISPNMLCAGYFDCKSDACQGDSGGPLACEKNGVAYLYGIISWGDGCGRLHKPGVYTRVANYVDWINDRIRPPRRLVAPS
From the text: FIG. 3: Effects of active site inhibitors on antibody binding to HGFA. (a-b, e-f) Surface plasmon resonance (BIAcore) measurements of binding to immobilized antibodies, Ab40 (a-b) or Ab40.ΔTrp (e-f), after co-injection of HGFA (a,e) or HGFA-KQLR (b, f) complex (“KQLR” disclosed as SEQ ID NO: 21). (c) Competition binding (BIAcore) of HGFA to immobilized Ab40 in presence of different concentrations of KD1. (d) Competition binding ELISA measuring binding of HGFA to biotinylated KD1 in the presence of increasing antibody concentrations.
Antibody reformatting and determination of dissociation rate constants to HGFA: Anti-HGFA Fabs were reformatted into human IgG1 by cloning the VL and VH regions of individual clones into LPG3 and LPG4 vector, respectively (Liang et al, 2007). The full-length antibodies were transiently expressed in Chinese Hamster Ovary cells and purified on a protein-A column. […] Association rates (kon) and dissociation rates (koff) were obtained by using a simple one-to-one Langmuir binding model (BIAEvaluation) and the equilibrium dissociation constants (KD) were calculated (koff/kon). […] The values of Req (20-80% of Rmax) were calculated and plotted individually against C (concentration of HGFA or HGFA-KQLR (“KQLR” disclosed as SEQ ID NO: 21)) using BIAEvaluation Software to determine KD at the steady state analysis. […]

[1] = biological target: HGFA (Val373-Ser655 plus tag …) (human) (UniProt Q04756); assay: cell-based or functional assay
[2] = biological target: HGFA (Val373-Ser655 plus tag …) (human) (UniProt Q04756); assay: SPR (BIAcore), IgG captured by anti-human IgG, HGFA injected
[3] = biological target: T2, HGFA (Val373-Ser655 plus tag …) (human, UniProt Q04756 373-655); assay: SPR (BIAcore)
T2 construct: Made in baculovirus-insect cells, active-site titrated
T2 sequence: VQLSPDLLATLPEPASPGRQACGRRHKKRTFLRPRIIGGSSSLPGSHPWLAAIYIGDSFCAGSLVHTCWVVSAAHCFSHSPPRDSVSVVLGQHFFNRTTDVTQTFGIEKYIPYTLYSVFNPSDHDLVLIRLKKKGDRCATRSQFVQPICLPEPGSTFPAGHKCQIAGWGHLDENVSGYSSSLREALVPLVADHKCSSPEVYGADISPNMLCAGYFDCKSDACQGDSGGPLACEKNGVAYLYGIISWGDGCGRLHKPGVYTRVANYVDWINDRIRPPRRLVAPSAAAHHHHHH

HGFA-KQLR complex [4] = biological target: T3, HGFA-KQLR complex (human, UniProt Q04756 373-655, N-terminal acetyl; C-terminal chloromethyl ketone, reacted with Ser195 and His57 of HGFA; Ser195 and His57 (chymotrypsinogen numbering) covalently linked to Ac-KQLR-cmk); assay: SPR (BIAcore)
T3 construct: Made by incubating HGFA with a two fold molar excess of Ac-KQLR-cmk for 2 hours, then size exclusion chromatography

[5] = biological target: T2, HGFA (Val373-Ser655 plus tag …); assay: cell-based or functional assay
[6] = biological target: T2, HGFA (Val373-Ser655 plus tag …); assay: SPR (BIAcore), IgG captured by anti-human IgG, HGFA injected
HGFA-KQLR complex [7] = biological target: T3, HGFA-KQLR complex; assay: SPR (BIAcore), IgG captured by anti-human IgG, HGFA-KQLR complex injected
[8] = biological target: T2, HGFA (Val373-Ser655 plus tag …); assay: competition ELISA: plate coated with HGFA, incubated with increasing Ab40, then 1 nM biotinylated KD1 (blocked ligand) detected with streptavidin-HRP
[9] = biological target: T2, HGFA (Val373-Ser655 plus tag …); assay: SPR (BIAcore), steady state affinity, IgG captured, HGFA injected
HGFA-KQLR complex [10] = biological target: T3, HGFA-KQLR complex; assay: SPR (BIAcore), steady state affinity, IgG captured, HGFA-KQLR complex injected

interference with binding of Ab40 to HGFA (HGFA): interfered
Molecule: Ac-KQLR-chloromethyl ketone (Ac-KQLR-CH2Cl; SMILES CC(=O)N[C@@H](CCCCN)C(=O)N[C@@H](CCC(N)=O)C(=O)N[C@@H](CC(C)C)C(=O)N[C@@H](CCCNC(=N)N)C(=O)CCl) [Ac-KQLR-cmk]

interference with binding of Ab40 to HGFA (HGFA): did not interfere
Molecule: N=C(N)c1ccccc1 [Benzamidine]

Km^app of S-2266 hydrolysis at 1 µM Ab39 (control Km=0.25 mM) [1]: 910 µM | Vmax^app of S-2266 hydrolysis at 1 µM Ab39 (control Vmax=0.99 µM pNA/min) [1]: 0.97 µM pNA/min | Kd [2]: 10.3 nM | koff [2]: 0.0053 s⁻¹ | kon [2]: 520000 M⁻¹ s⁻¹
B1: Ab39 (antibody, from a related filing, human IgG1, V domains shown)
VH: EVQLVESGGGLVQPGGSLRLSCAASGFTFNGTYIHWVRQAPGKGLEWVGGIYPAGGATYYADSVKGRFTISRDNSKNTLYLQMNSLRAEDTAVYYCAKWWAWPAFDYWGQGTLVTVSS
VL: DIQMTQSPSSLSASVGDRVTITCRASQDVSTAVAWYQQKPGKAPKLLIYSASFLYSGVPSRFSGSGSGTDFTLTISSLQPEDFATYYCQQSYTTPPTFGQGTKVEIKR

fold improvement in binding affinity over Ab39 [3]: 64 fold | fold decrease in affinity compared to HGFA (HGFA-KQLR complex [4]): 8 fold | IC50 (read off the curve), HGFA fractional activity vi/vo on S-2266 [5]: ~8 nM | Kd [6]: 0.16 nM | koff [6]: 0.000175 s⁻¹ | kon [6]: 1.08e+06 M⁻¹ s⁻¹ | Kd (HGFA-KQLR complex [7]): 1.35 nM | koff (HGFA-KQLR complex [7]): 0.00043 s⁻¹ | kon (HGFA-KQLR complex [7]): 320000 M⁻¹ s⁻¹ | IC50 (read off the curve) [8]: ~1 nM
B2: Ab40 (antibody, V domains shown)
VH: B1 VH with F29I, R72A, N74T, L79A
VL: B1 VL with Y92N, T93R, T94A, P96A

Kd [9]: 150 nM | Kd (HGFA-KQLR complex [10]): 161 nM
B3: Ab40.ΔTrp (antibody, V domains shown)
VH: EVQLVESGGGLVQPGGSLRLSCAASGFTINGTYIHWVRQAPGKGLEWVGGIYPAGGATYYADSVKGRFTISADTSKNTAYLQMNSLRAEDTAVYYCAKWAWPAFDYWGQGTLVTVSS
VL: B1 VL with Y92N, T93R, T94A, P96A
